Article PMC10937716

Legend:
Experiment in all cases: cryo-EM structure; purified BAV virions (full and partial particles) in 1x PBS pH 7.4; icosahedral reconstruction and local reconstructions of the fivefold vertex, of RdRp and of VP9
[1] = target: Banna virus (BAV) strain YN15-126-01 VP4, membrane penetration protein (spike) (Banna virus strain YN15-126-01)
[2] = target: Banna virus (BAV) strain YN15-126-01 VP8, outer capsid protein (Banna virus strain YN15-126-01)
[3] = target: Banna virus (BAV) strain YN15-126-01 VP9, receptor binding protein (spike) (Banna virus strain YN15-126-01)

Banna virus (BAV) strain YN15-126-01 VP4, membrane penetration protein (spike) (natural protein)
stoichiometry N [1]: 3

Banna virus (BAV) strain YN15-126-01 VP8, outer capsid protein (natural protein)
stoichiometry N [2]: 3

Banna virus (BAV) strain YN15-126-01 VP9, receptor binding protein (spike) (natural protein)
stoichiometry N [3]: 3
